# Measured values reported in patent publication US20050054569A1, “Mutants and assay system to identify USP/RXR ligands” (published 2005).
# T1: USP (ultraspiracle) wild-type (Drosophila melanogaster, UniProt P20153 SEQ:1-508)
# T1 sequence: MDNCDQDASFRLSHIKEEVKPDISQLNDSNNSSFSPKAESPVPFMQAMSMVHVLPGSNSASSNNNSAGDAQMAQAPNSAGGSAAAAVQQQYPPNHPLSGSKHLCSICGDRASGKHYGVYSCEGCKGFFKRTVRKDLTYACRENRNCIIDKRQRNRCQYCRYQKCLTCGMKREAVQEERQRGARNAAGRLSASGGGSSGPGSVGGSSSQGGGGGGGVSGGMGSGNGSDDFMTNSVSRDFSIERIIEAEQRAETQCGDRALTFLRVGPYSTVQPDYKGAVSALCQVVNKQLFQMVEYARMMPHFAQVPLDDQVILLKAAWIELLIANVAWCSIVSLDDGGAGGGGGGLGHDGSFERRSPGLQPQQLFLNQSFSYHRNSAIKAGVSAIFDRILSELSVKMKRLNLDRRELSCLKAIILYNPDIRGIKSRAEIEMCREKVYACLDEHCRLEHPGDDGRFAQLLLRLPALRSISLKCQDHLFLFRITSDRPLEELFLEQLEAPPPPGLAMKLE
# T2: USP C472A/H475L (Drosophila melanogaster, UniProt P20153 SEQ:1-508, C472A/H475L)
# T2 sequence: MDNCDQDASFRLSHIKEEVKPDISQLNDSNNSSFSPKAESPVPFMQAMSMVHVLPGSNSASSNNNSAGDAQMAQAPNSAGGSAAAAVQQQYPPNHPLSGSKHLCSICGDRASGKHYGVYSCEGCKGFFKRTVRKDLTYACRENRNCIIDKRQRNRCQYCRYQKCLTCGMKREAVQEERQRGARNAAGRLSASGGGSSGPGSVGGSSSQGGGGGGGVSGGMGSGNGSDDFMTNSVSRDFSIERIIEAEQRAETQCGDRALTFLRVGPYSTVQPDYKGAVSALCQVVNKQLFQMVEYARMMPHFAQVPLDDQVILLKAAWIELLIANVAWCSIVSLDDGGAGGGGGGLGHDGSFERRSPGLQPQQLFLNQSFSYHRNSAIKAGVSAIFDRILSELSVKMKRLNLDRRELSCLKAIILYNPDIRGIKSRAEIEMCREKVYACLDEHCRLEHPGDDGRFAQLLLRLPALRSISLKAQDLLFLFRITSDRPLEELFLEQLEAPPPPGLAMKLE
# Assays:
# [1] = biological target: T1, USP (ultraspiracle) wild-type; assay: competition; 100x nonself competitor, specificity control; details: tags: His-tag, pET32EK (Novagen); chain copies: monomer and homodimer (stated)
# Experimental: (§1) Control competitions with self and nonself unlabelled excess probes confirmed the specificity of binding. […] (B) The homodimer-enriched fraction of each receptor preparation was then analyzed for binding to […] methyl epoxyfarnesoate, using an intrinsic fluorescence assay method that tracks ligand binding (by suppression in receptor fluorescence) Jones et al., (2000) Insect Biochem. Mol. Biol. 30, 671-679; Jones et al. (2001), Insect Biochem. Mol. Biol. 32, 33-49. […] Arrows show time of addition of methyl epoxyfarnesoate or EtOH carrier.
# (§2) Nuclear extracts were isolated from Sf9 cells as previously described Jones et al. (2001) Insect Biochem. Mol. Biol. 32, 33-49; Jones et al (1998) Biochem. J. 335, 79-84; 79-84; Jones et al. (2000) Biochem. J. 346, 233-240. For the DR12 probe, the double stranded DR12 oligonucleotide (sequence as shown above) was 5′ end-labelled with ³²P by T4 polynucleotide kinase (New England Biolabs Inc.), and then purified from a 20% native polyacrylamide gel. The same double stranded DR12 oligonucleotide was used in 100-fold excess as a self competitor. For the 4DR12Core probe, the 4DR12Core sequence was liberated from the vector as a 148-bp ClaI/HindIII fragment, and was 5′ end-labelled with ³²P and purified. The same, unlabelled fragment was used at 100-fold excess as a self competitor. […]
# USP C472A/H475L = biological target: T2, USP C472A/H475L; assay: as above; details: tags: His-tag, pET32EK (Novagen); chain copies: monomer and homodimer (stated)
# Experimental: as §1, §2
# [2] = biological target: the molecule itself; assay: dimerisation, gel mobility shift on DR12 probe (not shown)
# [3] = biological target: the molecule itself; assay: homodimerisation, gel mobility shift on 4DR12 probe; bands assigned with Superdex 200 fractions
# Source text: Arrows show time of addition of methyl epoxyfarnesoate or EtOH carrier.
# Nuclear extracts were isolated from Sf9 cells as previously described Jones et al. (2001) Insect Biochem. Mol. Biol. 32, 33-49; Jones et al (1998) Biochem. J. 335, 79-84; 79-84; Jones et al. (2000) Biochem. J. 346, 233-240. For the DR12 probe, the double stranded DR12 oligonucleotide (sequence as shown above) was 5′ end-labelled with ³²P by T4 polynucleotide kinase (New England Biolabs Inc.), and then purified from a 20% native polyacrylamide gel. The same double stranded DR12 oligonucleotide was used in 100-fold excess as a self competitor. For the 4DR12Core probe, the 4DR12Core sequence was liberated from the vector as a 148-bp ClaI/HindIII fragment, and was 5′ end-labelled with ³²P and purified. The same, unlabelled fragment was used at 100-fold excess as a self competitor. As a negative control for specificity in gel shifts, the 36 bp BglII/KpnI polylinker region fragment of the pGL3 vector was liberated and recovered from low melting point agarose gels and used as a 100 nonself competitor (sequence: […], SEQ ID NO: 17). […]
binder,measurement,setting,value
pGL3 polylinker (nonself) (dsDNA) DNA 1: GGTACCGAGCTCTTACGCGTGCTAGCCCGGGCTCGA DNA 2: TCGAGCCCGGGCTAGCACGCGTAAGAGCTCGGTACC,binding result,[1],no binding
same,binding result,USP C472A/H475L,no binding
"His-tagged wild-type Drosophila melanogaster USP (bacterially overexpressed) (receptor, Full-length dUSP cloned into pET32EK, purified on nickel resin and Superdex 200; also called wild-type dUSP; His-dUSP fusion protein; not shown: His tag / fusion part from the vector pET32EK) MDNCDQDASFRLSHIKEEVKPDISQLNDSNNSSFSPKAESPVPFMQAMSMVHVLPGSNSASSNNNSAGDAQMAQAPNSAGGSAAAAVQQQYPPNHPLSGSKHLCSICGDRASGKHYGVYSCEGCKGFFKRTVRKDLTYACRENRNCIIDKRQRNRCQYCRYQKCLTCGMKREAVQEERQRGARNAAGRLSASGGGSSGPGSVGGSSSQGGGGGGGVSGGMGSGNGSDDFMTNSVSRDFSIERIIEAEQRAETQCGDRALTFLRVGPYSTVQPDYKGAVSALCQVVNKQLFQMVEYARMMPHFAQVPLDDQVILLKAAWIELLIANVAWCSIVSLDDGGAGGGGGGLGHDGSFERRSPGLQPQQLFLNQSFSYHRNSAIKAGVSAIFDRILSELSVKMKRLNLDRRELSCLKAIILYNPDIRGIKSRAEIEMCREKVYACLDEHCRLEHPGDDGRFAQLLLRLPALRSISLKCQDHLFLFRITSDRPLEELFLEQLEAPPPPGLAMKLE",binding result,[2],binds
"P498W/P499W mutant USP (receptor, not shown: small tags and cut ends, Two prolines at the end of alpha-helix 12 replaced by tryptophan) MDNCDQDASFRLSHIKEEVKPDISQLNDSNNSSFSPKAESPVPFMQAMSMVHVLPGSNSASSNNNSAGDAQMAQAPNSAGGSAAAAVQQQYPPNHPLSGSKHLCSICGDRASGKHYGVYSCEGCKGFFKRTVRKDLTYACRENRNCIIDKRQRNRCQYCRYQKCLTCGMKREAVQEERQRGARNAAGRLSASGGGSSGPGSVGGSSSQGGGGGGGVSGGMGSGNGSDDFMTNSVSRDFSIERIIEAEQRAETQCGDRALTFLRVGPYSTVQPDYKGAVSALCQVVNKQLFQMVEYARMMPHFAQVPLDDQVILLKAAWIELLIANVAWCSIVSLDDGGAGGGGGGLGHDGSFERRSPGLQPQQLFLNQSFSYHRNSAIKAGVSAIFDRILSELSVKMKRLNLDRRELSCLKAIILYNPDIRGIKSRAEIEMCREKVYACLDEHCRLEHPGDDGRFAQLLLRLPALRSISLKCQDHLFLFRITSDRPLEELFLEQLEAWWPPGLAMKLE",binding result,[2],binds
"His-tagged mutant dUSP Cys472Ala/His475Leu (bacterially overexpressed) (receptor, also called C472A/H475L; double mutant dUSP; not shown: His tag / fusion part from the vector pET32EK) MDNCDQDASFRLSHIKEEVKPDISQLNDSNNSSFSPKAESPVPFMQAMSMVHVLPGSNSASSNNNSAGDAQMAQAPNSAGGSAAAAVQQQYPPNHPLSGSKHLCSICGDRASGKHYGVYSCEGCKGFFKRTVRKDLTYACRENRNCIIDKRQRNRCQYCRYQKCLTCGMKREAVQEERQRGARNAAGRLSASGGGSSGPGSVGGSSSQGGGGGGGVSGGMGSGNGSDDFMTNSVSRDFSIERIIEAEQRAETQCGDRALTFLRVGPYSTVQPDYKGAVSALCQVVNKQLFQMVEYARMMPHFAQVPLDDQVILLKAAWIELLIANVAWCSIVSLDDGGAGGGGGGLGHDGSFERRSPGLQPQQLFLNQSFSYHRNSAIKAGVSAIFDRILSELSVKMKRLNLDRRELSCLKAIILYNPDIRGIKSRAEIEMCREKVYACLDEHCRLEHPGDDGRFAQLLLRLPALRSISLKAQDLLFLFRITSDRPLEELFLEQLEAPPPPGLAMKLE",binding result,[3],binds
